Reference: article PMC4468108

How the values were obtained:
DsRmChΔ5 = DsRmChΔ5 (UniProt Q9U6Y8); assay: AUC; sedimentation velocity, 40,000 RPM overnight, PBS pH 7.4, sample diluted to A575 of 0.5, c(m) distribution in Sedfit
DsRmCh [1] = target: DsRmCh (UniProt Q9U6Y8); assay: as above
DsRmCh [2] = target: DsRmCh (UniProt Q9U6Y8); assay: SEC; Superdex 75 10/300, 100 μl of purified protein, absorbance at 575 nm

| stoichiometry N (DsRmChΔ5) | stoichiometry N (DsRmCh [1]) | stoichiometry N (DsRmCh [2]) | Substance |
| --- | --- | --- | --- |
| 4 |  |  | DsRmChΔ5 (from UniProt Q9U6Y8 1-220) |
|  | 4 | 4 | DsRmCh (from UniProt Q9U6Y8 1-225) |
